From patent CN112125972A (SINOCELLTECH LTD, dated 2020) come the findings set out here.

Experiment [1] deals with T1, HPV45 VLP (Human papillomavirus type 45, UniProt P36741 27-539).
T1 construct: also called HPV45完整VLP蛋白
T1 sequence: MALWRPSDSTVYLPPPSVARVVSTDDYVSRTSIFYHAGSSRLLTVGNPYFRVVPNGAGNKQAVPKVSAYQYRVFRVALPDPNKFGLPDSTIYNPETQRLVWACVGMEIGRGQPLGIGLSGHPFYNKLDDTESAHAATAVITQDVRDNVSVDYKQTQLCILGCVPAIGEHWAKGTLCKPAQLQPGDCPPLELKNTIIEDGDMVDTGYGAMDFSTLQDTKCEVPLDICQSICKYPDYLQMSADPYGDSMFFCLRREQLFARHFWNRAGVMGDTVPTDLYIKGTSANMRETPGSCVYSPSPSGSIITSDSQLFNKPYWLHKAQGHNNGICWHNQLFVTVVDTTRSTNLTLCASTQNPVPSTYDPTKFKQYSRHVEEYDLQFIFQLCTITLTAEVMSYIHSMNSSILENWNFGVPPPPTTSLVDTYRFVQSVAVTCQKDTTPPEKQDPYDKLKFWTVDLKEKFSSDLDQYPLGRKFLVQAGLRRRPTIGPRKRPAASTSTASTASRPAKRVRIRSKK
The experiment in a line: indirect ELISA, VLP coated at 2 μg/mL, antibody at 10 ng/mL.

Experiment [2] concerns the target T2, HPV31 VLP (Human papillomavirus type 31, UniProt P17388 1-504).
T2 construct: also called HPV31完整VLP蛋白
T2 sequence: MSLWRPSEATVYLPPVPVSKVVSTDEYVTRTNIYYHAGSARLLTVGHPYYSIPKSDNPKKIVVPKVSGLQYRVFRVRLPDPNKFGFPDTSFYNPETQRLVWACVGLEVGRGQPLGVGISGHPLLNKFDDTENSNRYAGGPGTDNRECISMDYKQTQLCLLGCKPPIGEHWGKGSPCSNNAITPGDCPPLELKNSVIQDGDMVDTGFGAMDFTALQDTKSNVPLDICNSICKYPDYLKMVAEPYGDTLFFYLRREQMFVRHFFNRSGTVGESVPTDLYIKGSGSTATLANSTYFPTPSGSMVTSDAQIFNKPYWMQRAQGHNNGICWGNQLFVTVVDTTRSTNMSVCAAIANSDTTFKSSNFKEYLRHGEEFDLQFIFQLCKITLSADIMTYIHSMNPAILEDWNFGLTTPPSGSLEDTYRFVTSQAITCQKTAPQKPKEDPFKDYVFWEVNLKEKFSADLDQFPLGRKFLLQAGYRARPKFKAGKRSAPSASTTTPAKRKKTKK
The description is as above.

The target in experiment [3] is T3, HPV39 VLP (Human papillomavirus type 39, UniProt P24838 1-505).
T3 construct: also called HPV39完整VLP蛋白
T3 sequence: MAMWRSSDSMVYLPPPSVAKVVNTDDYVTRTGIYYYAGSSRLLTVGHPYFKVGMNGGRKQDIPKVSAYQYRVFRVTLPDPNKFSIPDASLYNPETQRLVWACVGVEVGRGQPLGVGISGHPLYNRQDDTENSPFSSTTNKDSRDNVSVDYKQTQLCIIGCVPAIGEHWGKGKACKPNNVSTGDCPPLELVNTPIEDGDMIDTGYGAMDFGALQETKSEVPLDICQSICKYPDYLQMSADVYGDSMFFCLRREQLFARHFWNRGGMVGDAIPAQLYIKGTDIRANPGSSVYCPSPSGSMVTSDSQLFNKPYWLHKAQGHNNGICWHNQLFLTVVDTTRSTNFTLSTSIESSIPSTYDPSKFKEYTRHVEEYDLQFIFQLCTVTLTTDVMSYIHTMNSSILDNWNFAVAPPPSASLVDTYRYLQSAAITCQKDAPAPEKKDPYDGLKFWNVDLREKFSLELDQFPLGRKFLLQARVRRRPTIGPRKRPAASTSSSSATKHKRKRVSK
The experiment is described as above.

For experiment [4], the target named is T1, HPV45 VLP. Nature of the experiment: double-antibody sandwich ELISA, R001 as capture and HRP-R001 as detection, mixture of HPV types.
Experiment [5] addresses T4, HPV11 VLP (Human papillomavirus type 11, UniProt P04012 1-501).
T4 construct: also called HPV11完整VLP蛋白
T4 sequence: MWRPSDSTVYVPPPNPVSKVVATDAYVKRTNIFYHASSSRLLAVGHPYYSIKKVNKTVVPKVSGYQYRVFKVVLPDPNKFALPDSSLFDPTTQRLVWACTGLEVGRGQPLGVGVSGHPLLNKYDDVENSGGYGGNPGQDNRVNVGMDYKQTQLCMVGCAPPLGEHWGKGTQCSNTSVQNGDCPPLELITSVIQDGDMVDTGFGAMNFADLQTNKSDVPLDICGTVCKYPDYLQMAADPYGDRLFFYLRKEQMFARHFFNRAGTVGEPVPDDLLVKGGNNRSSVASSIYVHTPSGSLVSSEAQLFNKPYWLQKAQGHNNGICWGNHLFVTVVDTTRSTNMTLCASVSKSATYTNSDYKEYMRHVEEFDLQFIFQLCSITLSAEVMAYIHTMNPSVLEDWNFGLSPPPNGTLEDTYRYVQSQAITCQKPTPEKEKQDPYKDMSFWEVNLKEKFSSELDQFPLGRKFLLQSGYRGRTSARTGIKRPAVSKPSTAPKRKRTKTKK
The description is as above.

The target in experiment [6] is T5, HPV33 VLP (Human papillomavirus type 33, UniProt P06416 1-499).
T5 construct: also called HPV33完整VLP蛋白
T5 sequence: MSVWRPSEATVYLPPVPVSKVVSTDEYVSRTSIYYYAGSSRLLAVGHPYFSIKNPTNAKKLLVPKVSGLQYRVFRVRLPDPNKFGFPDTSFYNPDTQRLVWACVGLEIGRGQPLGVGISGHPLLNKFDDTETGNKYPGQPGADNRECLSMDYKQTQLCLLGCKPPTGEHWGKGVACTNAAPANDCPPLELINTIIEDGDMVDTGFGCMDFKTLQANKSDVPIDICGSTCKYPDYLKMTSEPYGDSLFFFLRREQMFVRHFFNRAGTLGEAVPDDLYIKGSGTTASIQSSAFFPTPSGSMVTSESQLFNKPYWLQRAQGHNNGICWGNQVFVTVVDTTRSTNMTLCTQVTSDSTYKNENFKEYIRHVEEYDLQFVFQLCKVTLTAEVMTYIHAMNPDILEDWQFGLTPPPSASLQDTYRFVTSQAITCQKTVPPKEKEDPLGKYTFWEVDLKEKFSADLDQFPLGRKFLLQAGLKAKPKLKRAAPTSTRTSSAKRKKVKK
The description is as above.

B1: HPV 16 R001 (antibody, V domains shown)
VH: QSVKESEGRLVTPGTPLTLTCTASGFTMSRYHMTWVRQAPGKGLEWIGIIYARNSDTYYANWAKGRFTISKTSTTVDLKITSPTIEDTATYFCARVDSDSSGAFDRLDLWGQGTLVTVSS
VL: DPMLTQTAASVEVAVGGTVTIKCQASQSIGGYLSWYQQKPGQRPKLLIYRASTLASGVPSRFKGSGSGTEYTLTFSGVECADAAAYYCQQGYTSSDINNAFGGGTEVVVK
notes: An HRP-labelled form served as detection antibody in the sandwich ELISA; also called HPV16.001; 单克隆抗体HPV 16 R001
Regarding B1, the OD450-blank in experiment [1] came to 0.002 OD450; in experiment [2], 0.002 OD450; in experiment [3] it was 0.004 OD450. For the same molecule, the binding result in experiment [4], in experiment [5] and in experiment [6] was “no binding (tested: 50ng/mL，25ng/mL，12.5ng/mL)” in each case.
